Where a chain is given by its changes, count along the chain named. Names may count otherwise. “And” between values parts separate entries of the source, which are not always exact repeats. Equal entries are not always repeated. Where two headings read alike, the source gives them in different places.
Tests used:
[1] = Thermostability of β adrenergic receptors expressed in mammalian cells, minus-ligand format (FIG. 26); settings: 0.1% dodecylmaltoside, apo-state heated, 3H-DHA
Description: The resulting mutants were transiently expressed in mammalian cells, solubilised in 0.1% dodecylmaltoside and assayed for thermostability in the minus-ligand format (heating the apo-state, quenching on ice, adding 3H-DHA).

A2aR mutant Rag 23 = settings: detergent-solubilised
βAR-m23 = βAR-m23 (Meleagris gallopavo, UniProt P07700, A282L/C116L/F327A/F338M/M90V/R68S/Y227A); assay type: binding, turkey
Sequence of βAR-m23 (P07700 34-424 R68S/M90V/C116L/Y227A/A282L/F327A/F338M): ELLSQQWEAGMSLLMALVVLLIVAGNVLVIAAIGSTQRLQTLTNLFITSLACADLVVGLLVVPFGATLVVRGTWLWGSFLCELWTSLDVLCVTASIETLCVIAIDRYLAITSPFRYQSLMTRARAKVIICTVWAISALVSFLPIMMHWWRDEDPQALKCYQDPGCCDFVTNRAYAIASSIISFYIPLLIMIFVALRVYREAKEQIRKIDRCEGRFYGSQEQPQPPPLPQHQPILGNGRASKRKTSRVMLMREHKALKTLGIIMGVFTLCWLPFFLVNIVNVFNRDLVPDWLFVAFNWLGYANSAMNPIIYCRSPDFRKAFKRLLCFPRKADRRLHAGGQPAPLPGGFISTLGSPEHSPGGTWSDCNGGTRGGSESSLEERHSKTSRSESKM

[2] = Thermostability of solubilised adenosine A2a receptor and mutants; assay type: physicochemical; settings: for Tm + agonist / Tm + antagonist / Tm − agonist / Tm − antagonist: 1% DDM, no glycerol; for Tm + agonist: agonist-occupied; for Tm + antagonist: antagonist-occupied; for Tm − agonist / Tm − antagonist: apo-state; for Tm: ZM241385 bound
Protocol: • 1. 315 site-directed mutants made between residues 2-316 of A2aR. • 2. All of these mutants have been assayed for thermostability using an assay measuring agonist and antagonist binding after the heating step (Ligand(−) format as described in FIG. 12). • a. […] Mutations have been combined to generate mutants in a putative antagonist conformation. Wildtype A2aR has a Tm of 31° C. with ZM241385 bound.

[3] = Thermostability of neurotensin receptor and mutants (3H-neurotensin binding); assay type: physicochemical; settings: neurotensin bound
Protocol: • 1. 340 site-directed mutants have been made between residues 61-400 of NTR. • 2. Initially, all of these mutants were assayed for thermostability using an assay measuring ^3H-neurotensin (agonist) binding after the heating step. […] Mutants tested for thermostability by heating in the absence of the agonist were re-tested using a slightly different assay where the mutants were heated in the presence of ^3H-neurotensin (Ligand(+) format in FIG. 12). […] All of these also have increased thermostability. • 5. Preferred combinations are • a. Nag7m F358A+A86L+I260A+F342A Tm 51° C. (neurotensin bound) • b. Nag7n F358A+H103A+I260A+F342A Tm 51° C. (neurotensin bound)

[4] = Thermostability of detergent-solubilised βAR34-424 and mutants ([3H]-DHA binding after heating 30 min)
Protocol: Binding assays were performed using [^3H]-dihydroalprenolol (DHA) as radioligand as described under “Methods”. Samples were heated for 30 minutes at different temperatures before the assay. […] Data points are from duplicates of one single experiment.
Single point binding assays contained 20 mM Tris pH 8, 0.4 M NaCl, 1 mM EDTA, 0.1% DDM (or corresponding detergent) with 50 nM [^3H]-DHA and 20-100 μg membrane protein in a final volume of 120 μl; equilibration was for 1 h at 4° C. Thermostability was assessed by incubating the binding assay mix, with or without [^3H]-DHA at the specified temperature for 30 minutes; reactions were placed on ice and [^3H]-DHA added as necessary and equilibrated for a further hour. Receptor-bound and free radioligand were separated by gel filtration as described previously[18]. […] Radioactivity was counted on a Beckman LS6000 liquid scintillation counter and data were analyzed by nonlinear regression using Prism software (GraphPad).

β1AR36-M23 = molecular target: T1, β1AR36-M23 (Meleagris gallopavo, UniProt P07700, A282L/C116L/C358A/DEL244-271/DEL277-278/F327A/F338M/M90V/R68S/Y227A); assay: biochemical; assay type: binding, turkey; settings: for kd: 10° C., footnote 1 averaged from two b1AR surfaces, footnote 2 preliminary results
T1 construct: beta-36 construct (amino acid residues 34-367 of the turkey beta receptor containing the following changes); His6 (C); made in house; host or cells: insect cells, baculovirus (stated for the beta-36 construct in the crystallisation text)
T1 sequence (P07700 other isoform, or with tags, fused parts or gaps with the stated changes): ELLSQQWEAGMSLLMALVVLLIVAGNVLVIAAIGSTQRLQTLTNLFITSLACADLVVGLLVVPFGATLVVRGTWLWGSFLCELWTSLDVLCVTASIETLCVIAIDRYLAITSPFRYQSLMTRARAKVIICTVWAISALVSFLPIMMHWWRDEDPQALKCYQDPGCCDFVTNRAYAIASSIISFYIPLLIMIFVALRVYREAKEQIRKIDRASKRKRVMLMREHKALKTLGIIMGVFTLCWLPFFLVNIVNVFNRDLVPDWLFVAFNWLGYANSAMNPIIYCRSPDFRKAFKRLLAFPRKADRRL
Protocol: Binding studies were performed at 10° C. using a Biacore S51 optical biosensor equipped with a streptavidin-coated CM5 chip and equilibrated with running buffer (20 mM trisHCl, 150 mM NaCl, 1 mM EDTA, 1% DMSO, 0.1% decyl maltoside, pH 7.8).
Flow through of the compound allowed the on rate to be determined. Subsequent washing enabled determination of the off rate. These parameters could then be used to determine a kinetic affinity measurement (Kd).

[5] = apo-state heated 30 min, E. coli expressed, DDM-solubilised, mean ± S.E. from duplicates

In the case of human β1: human β1 adrenergic receptor, the “apparent Tm” value [1] is reported as roughly 12 °C.

Molecule CCNC(=O)[C@H]1O[C@@H](n2cnc3c(N)ncnc32)[C@H](O)[C@@H]1O [[^3H]NECA] has a Kd (A2aR mutant Rag 23) of 21 ± 1 nM.

In the case of “1-[4,6-propyl-^3H]-dihydroalprenolol [[^3H]-dihydroalprenolol]”, the Kd (βAR-m23; membranes, n=2) is reported as 6.5 ± 0.2 nM and the Kd (βAR-m23; semipurified receptor) is reported as 12.5 nM.

In the case of “wt: wild-type human adenosine A2a receptor [reference compound]”, the “Tm, Agonist-binding” value ([2]; 0.003% LDAO) is reported as 28 °C, the “Tm, Antagonist-binding” value ([2]; 0.003% LDAO) is reported as 32 °C and the “Tm, Agonist-binding” value ([2]; 0.006% FC12) is reported as 37 °C. The “Tm, Antagonist-binding” value ([2]; 0.006% FC12) was 43 °C, the “Tm, Agonist-binding” value ([2]; 0.01% DDM) was 27 °C and the “Tm, Antagonist-binding” value ([2]; 0.01% DDM) was 25 °C. The “Tm, Agonist-binding” value ([2]; 0.1% DM) was 23 °C, the “Tm, Antagonist-binding” value ([2]; 0.1% DM) was 10 °C and the “Tm, Agonist-binding” value ([2]; 0.3% NM) was 22 °C. For the same molecule, the “Tm, Antagonist-binding” value ([2]; 0.3% NM) was less than 4 °C, the “Tm, Agonist-binding” value ([2]; 0.6% OG) was less than 9 °C and the “Tm + agonist” value [2] was 29 °C. The “Tm + antagonist” value [2] was 32 °C, the “Tm − agonist” value [2] was 21 °C and the “Tm − antagonist” value [2] was 31 °C. For the same molecule, the Tm [2] was 31 °C.

With “Wildtype NTR: wild-type neurotensin receptor [reference compound]” the Tm [3] was 35 °C.

With “m10-4: βAR34-424 mutant R68S, M90V, V230A, A334L” the Tm [4, 5] was 46.9 ± 1.0 °C.

For “m6-9: βAR34-424 mutant R68S, Y227A, A234L, A282L, A334L”, the Tm [4, 5] was 43.7 ± 0.4 °C.

Work on “m7-7: βAR34-424 mutant M90V, Y227A, F338M” yielded a Tm [4, 5] of 45.2 ± 2.0 °C.

With “m6-10: βAR34-424 mutant R68S, Y227A, A282L, A334L” the Tm [4, 5] was 47.4 ± 1.1 °C.

With “turkey β1: turkey β1 adrenergic receptor transiently expressed in mammalian cells” the “apparent Tm” value [1] was 23 °C.

With “m20: βAR34-424 mutant R68S, M90V, F327A, A334L” the Tm [4, 5] was 48.4 ± 0.7 °C.

With “m23: βAR34-424 mutant R68S, M90V, Y227A, A282L, F327A, F338M” the Tm ([4]; Ni-NTA partially purified, in DDM) was 52 °C, the Tm ([4]; Ni-NTA partially purified, in DM) was 48 °C and the Tm ([4]; Ni-NTA partially purified, in LDAO) was 23 °C. For the same molecule, the Tm ([4]; Ni-NTA partially purified, in NG) was 25 °C, the Tm ([4]; Ni-NTA partially purified, in OG) was 17 °C and the “Tm with antagonist bound” value ([4]; [3H]-DHA bound during heating) was 55 °C. For the same molecule, the “increase in Tm with bound antagonist” value ([4]; antagonist bound versus without antagonist) was 2 °C and the Tm [4, 5] was 52.8 °C and 52.8 ± 1.4 °C.

Work on “m6-4: βAR34-424 mutant R68S, Y227A, A234L, A282L” yielded a Tm [4, 5] of 41.6 ± 0.1 °C.

Molecule “m7-1: βAR34-424 mutant M90V, A282L, F338M” has a Tm [4, 5] of 43.0 ± 0.8 °C.

With “m6-5: βAR34-424 mutant R68S, A234L, A282L, A334L” the Tm [4, 5] was 41.9 ± 0.5 °C.

For OCc1cc(C(O)CNCCCCCCOCCCCc2ccccc2)ccc1O (centres unmarked) [Salmeterol], the Kd (β1AR36-M23) was 2500 ± 300 nM, the kd (β1AR36-M23) was “(9.5 ± 0.4) × 10^−2 s^−1” and the “binding strength compared with alprenolol or propranolol” value (β1AR36-M23; in words) was “bound the receptor much more weakly”. For the same molecule, the “dissociation rate compared with the other compounds” value (β1AR36-M23; in words) was “dissociated much faster”.

With C=CCc1ccccc1OC[C@@H](O)CNC(C)C [alprenolol] the Kd (β1AR36-M23) was 44 ± 1 nM and the kd (β1AR36-M23) was “(6.3 ± 0.1) × 10^−3 s^−1”.

B1: Rant17: A2aR mutant A54L + K122A + L235A (protein, UniProt P29274 1-412, looked up, variant A54L K122A L235A)
Adenosine receptor A2a: MPIMGSSVYITVELAIAVLAILGNVLVCWAVWLNSNLQNVTNYFVVSLAAADILVGVLAIPFAITISTGFCAACHGCLFIACFVLVLTQSSIFSLLAIAIDRYIAIRIPLRYNGLVTGTRAAGIIAICWVLSFAIGLTPMLGWNNCGQPKEGKNHSQGCGEGQVACLFEDVVPMNYMVYFNFFACVLVPLLLMLGVYLRIFLAARRQLKQMESQPLPGERARSTLQKEVHAAKSAAIIVGLFALCWLPLHIINCFTFFCPDCSHAPLWLMYLAIVLSHTNSVVNPFIYAYRIREFRQTFRKIIRSHVLRQQEPFKAAGTSARVLAAHGSDGEQVSLRLNGHPPGVWANGSAPHPERRPNGYALGLVSGGSAQESQGNTGLPDVELLSHELKGVCPEPPGLDDPLAQDGAGVS
For B1, the Tm [2] was “Tm 48 °C (ZM241385 bound)”.

B2: Rant 5: A2aR mutant A54L/T88A/V239A (protein, UniProt P29274 1-412, looked up, variant A54L T88A V239A)
Adenosine receptor A2a: B1 Adenosine receptor A2a with T88A, A122K, A235L, V239A
In the case of B2, the “Tm + antagonist” value [2] is reported as 46 °C and the “Tm − antagonist” value [2] is reported as 42 °C.

B3: Rag 1: A2aR mutant A184L/R199A/L272A (protein, UniProt P29274 1-412, looked up, variant A184L R199A L272A)
Adenosine receptor A2a: B1 Adenosine receptor A2a with L54A, A122K, A184L, R199A, A235L, L272A
For B3, the “Tm + agonist” value [2] was 34 °C and the “Tm − agonist” value [2] was 26 °C.

B4: Rant21: A2aR mutant A54L, T88A, V239A + K122A (protein, UniProt P29274 1-412, looked up, variant A54L T88A V239A K122A)
Adenosine receptor A2a: B1 Adenosine receptor A2a with T88A, A235L, V239A
In the case of B4, the “Tm, Antagonist-binding” value ([2]; 0.003% LDAO) is reported as 42 °C, the “Tm, Antagonist-binding” value ([2]; 0.006% FC12) is reported as 49 °C and the “Tm, Antagonist-binding” value ([2]; 0.01% DDM) is reported as 39 °C. For the same molecule, the “Tm, Antagonist-binding” value ([2]; 0.1% DM) was 28 °C, the “Tm, Antagonist-binding” value ([2]; 0.3% NG) was 22 °C and the “Tm, Antagonist-binding” value ([2]; 0.3% NM) was 25 °C. The “Tm, Antagonist-binding” value ([2]; 0.6% OG) was 23 °C, the “Tm + antagonist” value [2] was 49 °C and the “Tm − antagonist” value [2] was 41 °C. For the same molecule, the Tm [2] was “Tm 49 °C (ZM241385 bound)”.

B5: Rant19: A2aR mutant A54L, T88A, V239A + A204L (protein, UniProt P29274 1-412, looked up, variant A54L T88A V239A A204L)
Adenosine receptor A2a: B1 Adenosine receptor A2a with T88A, A122K, A204L, A235L, V239A
For B5, the Tm [2] was “Tm 47 °C (ZM241385 bound)”.

B6: Nag7m: rat neurotensin receptor mutant F358A+A86L+I260A+F342A (protein, UniProt P20789 1-424, looked up, variant F358A A86L I260A F342A)
Neurotensin receptor type 1: MHLNSSVPQGTPGEPDAQPFSGPQSEMEATFLALSLSNGSGNTSESDTAGPNSDLDVNTDIYSKVLVTAIYLALFVVGTVGNSVTLFTLARKKSLQSLQSTVHYHLGSLALSDLLILLLAMPVELYNFIWVHHPWAFGDAGCRGYYFLRDACTYATALNVASLSVERYLAICHPFKAKTLMSRSRTKKFISAIWLASALLAIPMLFTMGLQNRSGDGTHPGGLVCTPIVDTATVKVVIQVNTFMSFLFPMLVISILNTVAANKLTVMVHQAAEQGRVCTVGTHNGLEHSTFNMTIEPGRVQALRHGVLVLRAVVIAFVVCWLPYHVRRLMFCYISDEQWTTALFDFYHYFYMLTNALAYVSSAINPILYNLVSANFRQVFLSTLACLCPGWRHRRKKRPTFSRKPNSMSSNHAFSTSATRETLY
Molecule B6 has a Tm [3] of 51 °C.

B7: Nag7n: rat neurotensin receptor mutant F358A+H103A+I260A+F342A (protein, UniProt P20789 1-424, looked up, variant F358A H103A I260A F342A)
Neurotensin receptor type 1: B6 Neurotensin receptor type 1 with L86A, H103A
B7 showed a Tm [3] of 51 °C.

Reference: US9260505B2, “Methods for screening for binding partners of G-protein coupled receptors” (Heptares Therapeutics Limited, priority 2007, dated 2016)
